# Test results published in the supplement of paper PMC5998384.
# Key:
# HeLa Kyoto [1] = assay: melting temperature (median over replicates), in situ; higher = more thermally stable
# HeLa Kyoto [2] = assay: solubility in G1/S (NP-40 vs SDS abundance) (log2 ratio); higher = more soluble; conditions: cell cycle stage: G1/S
# HeLa Kyoto [3] = assay: solubility change mitosis vs G1/S (difference of NP-40 vs SDS log2 ratios) (log2 ratio difference); higher = more soluble in mitosis
# HeLa Kyoto [4] = assay: thermal stability score vs G1/S (z-score of summed log2 fold changes over temperatures); higher = more thermally stable than in G1/S
# [5] = cell cycle stage: early G1 (4.5 h after nocodazole release)
# 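Throughout, for melting temperature (median over replicates), in situ: HeLa Kyoto cells synchronized by double thymidine or nocodazole block, proteins quantified by TMT10plex mass spectrometry, three independent biological replicates.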
# 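Throughout, for solubility change mitosis vs G1/S (difference of NP-40 vs SDS log2 ratios): synchronized HeLa Kyoto cells (double thymidine block for G1/S, nocodazole release for mitosis), protein amounts in NP-40 versus SDS lysates quantified by mass spectrometry, three biological replicates.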
# 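Throughout, for solubility in G1/S (NP-40 vs SDS abundance): HeLa Kyoto cells arrested at G1/S by double thymidine block, proteins quantified by TMT10plex mass spectrometry in mild NP-40 versus SDS extracts, three biological replicates.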
# 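Throughout, for thermal stability score vs G1/S (z-score of summed log2 fold changes over temperatures): synchronized HeLa Kyoto cells, proteins quantified by TMT10plex mass spectrometry, three biological replicates, mitosis taken 0.5 h after nocodazole release, G1/S directly after double thymidine block.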
Substance,melting temperature (HeLa Kyoto [1]; cell cycle stage: G1/S),melting temperature (HeLa Kyoto [1]; cell cycle stage: mitosis),solubility in G1/S (log2) (HeLa Kyoto [2]),solubility change mitosis (log2) (HeLa Kyoto [3]),thermal stability score (HeLa Kyoto [4]; [5]),thermal stability score (HeLa Kyoto [4]; cell cycle stage: mitosis)
MRLSSLLALLRPALPLILGLSLGCSLSLLRVSWIQGEGEDPCVEAVGERGGPQNPDSRARLDQSDEDFKPRIVPYYRDPNKPYKKVLRTRYIQTELGSRERLLVAVLTSRATLSTLAVAVNRTVAHHFPRLLYFTGQRGARAPAGMQVVSHGDERPAWLMSETLRHLHTHFGADYDWFFIMQDDTYVQAPRLAALAGHLSINQDLYLGRAEEFIGAGEQARYCHGGFGYLLSRSLLLRLRPHLDGCRGDILSARPDEWLGRCLIDSLGVGCVSQHQGQQYRSFELAKNRDPEKEGSSAFLSAFAVHPVSEGTLMYRLHKRFSALELERAYSEIEQLQAQIRNLTVLTPEGEAGLSWPVGLPAPFTPHSRFEVLGWDYFTEQHTFSCADGAPKCPLQGASRADVGDALETALEQLNRRYQPRLRFQKQRLLNGYRRFDPARGMEYTLDLLLECVTQRGHRRALARRVSLLRPLSRVEILPMPYVTEATRVQLVLPLLVAEAAAAPAFLEAFAANVLEPREHALLTLLLVYGPREGGRGAPDPFLGVKAAAAELERRYPGTRLAWLAVRAEAPSQVRLMDVVSKKHPVDTLFFLTTVWTRPGPEVLNRCRMNAISGWQAFFPVHFQEFNPALSPQRSPPGPPGAGPDPPSPPGADPSRGAPIGGRFDRQASAEGCFYNADYLAARARLAGELAGQEEEEALEGLEVMDVFLRFSGLHLFRAVEPGLVQKFSLRDCSPRLSEELYHRCRLSNLEGLGGRAQLAMALFEQEQANST [CHPF2],53.4 °C,53 °C,-0.00882,-0.00799,-0.504,-0.497
SLC15A4,55.4 °C,56.5 °C,0.0784,-0.171,-2.84,-2.51
MATPGNLGSSVLASKTKTKKKHFVAQKVKLFRASDPLLSVLMWGVNHSINELSHVQIPVMLMPDDFKAYSKIKVDNHLFNKENMPSHFKFKEYCPMVFRNLRERFGIDDQDFQNSLTRSAPLPNDSQARSGARFHTSYDKRYIIKTITSEDVAEMHNILKKYHQYIVECHGITLLPQFLGMYRLNVDGVEIYVIVTRNVFSHRLSVYRKYDLKGSTVAREASDKEKAKELPTLKDNDFINEGQKIYIDDNNKKVFLEKLKKDVEFLAQLKLMDYSLLVGIHDVERAEQEEVECEENDGEEEGESDGTHPVGTPPDSPGNTLNSSPPLAPGEFDPNIDVYGIKCHENSPRKEVYFMAIIDILTHYDAKKKAAHAAKTVKHGAGAEISTVNPEQYSKRFLDFIGHILT [PIP4K2A],49.8 °C,49.4 °C,0.309,-0.142,2.24,1.11
KNTC1,49.6 °C,49.4 °C,-0.33,-0.188,-0.336,0.546
MWALCSLLRSAAGRTMSQGRTISQAPARRERPRKDPLRHLRTREKRGPSGCSGGPNTVYLQVVAAGSRDSGAALYVFSEFNRYLFNCGEGVQRLMQEHKLKVARLDNIFLTRMHWSNVGGLSGMILTLKETGLPKCVLSGPPQLEKYLEAIKIFSGPLKGIELAVRPHSAPEYEDETMTVYQIPIHSEQRRGKHQPWQSPERPLSRLSPERSSDSESNENEPHLPHGVSQRRGVRDSSLVVAFICKLHLKRGNFLVLKAKEMGLPVGTAAIAPIIAAVKDGKSITHEGREILAEELCTPPDPGAAFVVVECPDESFIQPICENATFQRYQGKADAPVALVVHMAPASVLVDSRYQQWMERFGPDTQHLVLNENCASVHNLRSHKIQTQLNLIHPDIFPLLTSFRCKKEGPTLSVPMVQGECLLKYQLRPRREWQRDAIITCNPEEFIVEALQLPNFQQSVQEYRRSAQDGPAPAEKRSQYPEIIFLGTGSAIPMKIRNVSATLVNISPDTSLLLDCGEGTFGQLCRHYGDQVDRVLGTLAAVFVSHLHADHHTGLPSILLQRERALASLGKPLHPLLVVAPNQLKAWLQQYHNQCQEVLHHISMIPAKCLQEGAEISSPAVERLISSLLRTCDLEEFQTCLVRHCKHAFGCALVHTSGWKVVYSGDTMPCEALVRMGKDATLLIHEATLEDGLEEEAVEKTHSTTSQAISVGMRMNAEFIMLNHFSQRYAKVPLFSPNFSEKVGVAFDHMKVCFGDFPTMPKLIPPLKALFAGDIEEMEERREKRELRQVRAALLSRELAGGLEDGEPQQKRAHTEEPQAKKVRAQ [ELAC2],56.2 °C,56.8 °C,0.0837,-0.0127,-1.66,-2.38
MNGRVDYLVTEEEINLTRGPSGLGFNIVGGTDQQYVSNDSGIYVSRIKENGAAALDGRLQEGDKILSVNGQDLKNLLHQDAVDLFRNAGYAVSLRVQHRLQVQNGPIGHRGEGDPSGIPIFMVLVPVFALTMVAAWAFMRYRQQL [SYNJ2BP],51.6 °C,51.6 °C,0.0992,-0.0614,1.82,1.39
MGKEQELLEAARTGHLPAVEKLLSGKRLSSGFGGGGGGGSGGGGGGSGGGGGGLGSSSHPLSSLLSMWRGPNVNCVDSTGYTPLHHAALNGHKDVVEVLLRNDALTNVADSKGCYPLHLAAWKGDAQIVRLLIHQGPSHTRVNEQNNDNETALHCAAQYGHTEVVKVLLEELTDPTMRNNKFETPLDLAALYGRLEVVKMLLNAHPNLLSCNTKKHTPLHLAARNGHKAVVQVLLDAGMDSNYQTEMGSALHEAALFGKTDVVQILLAAGTDVNIKDNHGLTALDTVRELPSQKSQQIAALIEDHMTGKRSTKEVDKTPPPQPPLISSMDSISQKSQGDVEKAVTELIIDFDANAEEEGPYEALYNAISCHSLDSMASGRSSDQDSTNKEAEAAGVKPAGVRPRERPPPPAKPPPDEEEEDHIDKKYFPLTASEVLSMRPRIHGSAAREEDEHPYELLLTAETKKVVLVDGKTKDHRRSSSSRSQDSAEGQDGQVPEQFSGLLHGSSPVCEVGQDPFQLLCTAGQSHPDGSPQQGACHKASMQLEETGVHAPGASQPSALDQSKRVGYLTGLPTTNSRSHPETLTHTASPHPGGAEEGDRSGARSRAPPTSKPKAELKLSRSLSKSDSDLLTCSPTEDATMGSRSESLSNCSIGKKRLEKSPSFASEWDEIEKIMSSIGEGIDFSQERQKISGLRTLEQSVGEWLESIGLQQYESKLLLNGFDDVHFLGSNVMEEQDLRDIGISDPQHRRKLLQAARSLPKVKALGYDGNSPPSVPSWLDSLGLQDYVHSFLSSGYSSIDTVKNLWELELVNVLKVQLLGHRKRIIASLADRPYEEPPQKPPRFSQLRCQDLLSQTSSPLSQNDSCTGRSADLLLPPGDTGRRRHDSLHDPAAPSRAERFRIQEEHREAKLTLRPPSLAAPYAPVQSWQHQPEKLIFESCGYEANYLGSMLIKDLRGTESTQDACAKMRKSTEHMKKIPTIILSITYKGVKFIDASNKNVIAEHEIRNISCAAQDPEDLCTFAYITKDLQTSHHYCHVFSTVDVNLTYEIILTLGQAFEVAYQLALQAQKSRATGASAAEMIETKSSKPVPKPRVGVRKSALEPPDMDQDAQSHASVSWVVDPKPDSKRSLSTN [ANKS1A],49.9 °C,50.1 °C,0.191,-0.0097,0.94,1.51
MPALPLDQLQITHKDPKTGKLRTSPALHPEQKADRYFVLYKPPPKDNIPALVEEYLERATFVANDLDWLLALPHDKFWCQVIFDETLQKCLDSYLRYVPRKFDEGVASAPEVVDMQKRLHRSVFLTFLRMSTHKESKDHFISPSAFGEILYNNFLFDIPKILDLCVLFGKGNSPLLQKMIGNIFTQQPSYYSDLDETLPTILQVFSNILQHCGLQGDGANTTPQKLEERGRLTPSDMPLLELKDIVLYLCDTCTTLWAFLDIFPLACQTFQKHDFCYRLASFYEAAIPEMESAIKKRRLEDSKLLGDLWQRLSHSRKKLMEIFHIILNQICLLPILESSCDNIQGFIEEFLQIFSSLLQEKRFLRDYDALFPVAEDISLLQQASSVLDETRTAYILQAVESAWEGVDRRKATDAKDPSVIEEPNGEPNGVTVTAEAVSQASSHPENSEEEECMGAAAAVGPAMCGVELDSLISQVKDLLPDLGEGFILACLEYYHYDPEQVINNILEERLAPTLSQLDRNLDREMKPDPTPLLTSRHNVFQNDEFDVFSRDSVDLSRVHKGKSTRKEENTRSLLNDKRAVAAQRQRYEQYSVVVEEVPLQPGESLPYHSVYYEDEYDDTYDGNQVGANDADSDDELISRRPFTIPQVLRTKVPREGQEEDDDDEEDDADEEAPKPDHFVQDPAVLREKAEARRMAFLAKKGYRHDSSTAVAGSPRGHGQSRETTQERRKKEANKATRANHNRRTMADRKRSKGMIPS [ASCC2],52.1 °C,49.5 °C,-0.248,0.0692,0.236,1.02
MLVLRSALTRALASRTLAPQMCSSFATGPRQYDGIFYEFRSYYLKPSKMNEFLENFEKNAHLRTAHSELVGYWSVEFGGRMNTVFHIWKYDNFAHRTEVRKALAKDKEWQEQFLIPNLALIDKQESEITYLVPWCKLEKPPKEGVYELATFQMKPGGPALWGDAFKRAVHAHVNLGYTKLVGVFHTEYGALNRVHVLWWNESADSRAAGRHKSHEDPRVVAAVRESVNYLVSQQNMLLIPTSFSPLK [NIPSNAP3A],56.2 °C,57.7 °C,-0.107,-0.224,-1.76,-2.47
MKKAEMGRFSISPDEDSSSYSSNSDFNYSYPTKQAALKSHYADVDPENQNFLLESNLGKKKYETEFHPGTTSFGMSVFNLSNAIVGSGILGLSYAMANTGIALFIILLTFVSIFSLYSVHLLLKTANEGGSLLYEQLGYKAFGLVGKLAASGSITMQNIGAMSSYLFIVKYELPLVIQALTNIEDKTGLWYLNGNYLVLLVSLVVILPLSLFRNLGYLGYTSGLSLLCMVFFLIVVICKKFQVPCPVEAALIINETINTTLTQPTALVPALSHNVTENDSCRPHYFIFNSQTVYAVPILIFSFVCHPAVLPIYEELKDRSRRRMMNVSKISFFAMFLMYLLAALFGYLTFYEHVESELLHTYSSILGTDILLLIVRLAVLMAVTLTVPVVIFPIRSSVTHLLCASKDFSWWRHSLITVSILAFTNLLVIFVPTIRDIFGFIGASAASMLIFILPSAFYIKLVKKEPMKSVQKIGALFFLLSGVLVMTGSMALIVLDWVHNAPGGGH [SLC38A2],57.5 °C,57.6 °C,0.157,-0.301,-0.691,-0.748
MMAAEAGSEEGGPVTAGAGGGGAAAGSSAYPAVCRVKIPAALPVAAAPYPGLVETGVAGTLGGGAALGSEFLGAGSVAGALGGAGLTGGGTAAGVAGAAAGVAGAAVAGPSGDMALTKLPTSLLAETLGPGGGFPPLPPPPYLPPLGAGLGTVDEGDSLDGPEYEEEEVAIPLTAPPTNQWYHGKLDRTIAEERLRQAGKSGSYLIRESDRRPGSFVLSFLSQMNVVNHFRIIAMCGDYYIGGRRFSSLSDLIGYYSHVSCLLKGEKLLYPVAPPEPVEDRRRVRAILPYTKVPDTDEISFLKGDMFIVHNELEDGWMWVTNLRTDEQGLIVEDLVEEVGREEDPHEGKIWFHGKISKQEAYNLLMTVGQVCSFLVRPSDNTPGDYSLYFRTNENIQRFKICPTPNNQFMMGGRYYNSIGDIIDHYRKEQIVEGYYLKEPVPMQDQEQVLNDTVDGKEIYNTIRRKTKDAFYKNIVKKGYLLKKGKGKRWKNLYFILEGSDAQLIYFESEKRATKPKGLIDLSVCSVYVVHDSLFGRPNCFQIVVQHFSEEHYIFYFAGETPEQAEDWMKGLQAFCNLRKSSPGTSNKRLRQVSSLVLHIEEAHKLPVKHFTNPYCNIYLNSVQVAKTHAREGQNPVWSEEFVFDDLPPDINRFEITLSNKTKKSKDPDILFMRCQLSRLQKGHATDEWFLLSSHIPLKGIEPGSLRVRARYSMEKIMPEEEYSEFKELILQKELHVVYALSHVCGQDRTLLASILLRIFLHEKLESLLLCTLNDREISMEDEATTLFRATTLASTLMEQYMKATATQFVHHALKDSILKIMESKQSCELSPSKLEKNEDVNTNLTHLLNILSELVEKIFMASEILPPTLRYIYGCLQKSVQHKWPTNTTMRTRVVSGFVFLRLICPAILNPRMFNIISDSPSPIAARTLILVAKSVQNLANLVEFGAKEPYMEGVNPFIKSNKHRMIMFLDELGNVPELPDTTEHSRTDLSRDLAALHEICVAHSDELRTLSNERGAQQHVLKKLLAITELLQQKQNQYTKTNDVR [RASA1],49.8 °C,50.1 °C,-0.0958,-0.135,0.554,0.915
